Assay results from PMC2592828.

Key:
Assay in all cases: far-Western, overlay or dot blot
[1] = biological target: p150^Glued subunit of dynactin (endogenous, band in total extracts) (UniProt Q14203)
[2] = biological target: zw10 (endogenous, ~90-kD band) (UniProt O43264)
[3] = biological target: recombinant IC-2C T89D mutant
[4] = biological target: recombinant IC-2C T89E mutant

Chain of UniProt O43264 (O43264 whole entry): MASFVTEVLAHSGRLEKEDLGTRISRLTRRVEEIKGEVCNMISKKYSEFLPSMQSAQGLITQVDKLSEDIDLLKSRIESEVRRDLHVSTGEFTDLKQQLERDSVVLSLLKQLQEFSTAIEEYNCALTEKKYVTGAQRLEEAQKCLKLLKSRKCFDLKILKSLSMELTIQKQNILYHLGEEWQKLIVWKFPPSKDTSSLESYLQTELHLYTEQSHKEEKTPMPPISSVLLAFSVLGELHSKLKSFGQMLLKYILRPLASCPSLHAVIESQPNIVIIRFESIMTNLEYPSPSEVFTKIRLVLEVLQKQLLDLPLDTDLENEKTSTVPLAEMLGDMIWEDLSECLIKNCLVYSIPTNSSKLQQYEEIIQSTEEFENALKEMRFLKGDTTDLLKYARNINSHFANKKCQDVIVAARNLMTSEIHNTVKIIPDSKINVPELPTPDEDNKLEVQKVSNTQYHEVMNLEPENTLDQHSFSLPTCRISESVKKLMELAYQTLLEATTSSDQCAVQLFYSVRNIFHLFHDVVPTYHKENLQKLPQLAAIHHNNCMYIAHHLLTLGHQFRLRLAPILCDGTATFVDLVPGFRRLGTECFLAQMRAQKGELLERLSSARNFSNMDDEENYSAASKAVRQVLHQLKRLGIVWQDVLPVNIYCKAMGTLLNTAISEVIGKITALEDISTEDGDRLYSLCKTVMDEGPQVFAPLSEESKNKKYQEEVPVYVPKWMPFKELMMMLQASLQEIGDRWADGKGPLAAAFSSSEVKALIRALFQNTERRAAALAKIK
Chain of UniProt Q14203 (Q14203 whole entry): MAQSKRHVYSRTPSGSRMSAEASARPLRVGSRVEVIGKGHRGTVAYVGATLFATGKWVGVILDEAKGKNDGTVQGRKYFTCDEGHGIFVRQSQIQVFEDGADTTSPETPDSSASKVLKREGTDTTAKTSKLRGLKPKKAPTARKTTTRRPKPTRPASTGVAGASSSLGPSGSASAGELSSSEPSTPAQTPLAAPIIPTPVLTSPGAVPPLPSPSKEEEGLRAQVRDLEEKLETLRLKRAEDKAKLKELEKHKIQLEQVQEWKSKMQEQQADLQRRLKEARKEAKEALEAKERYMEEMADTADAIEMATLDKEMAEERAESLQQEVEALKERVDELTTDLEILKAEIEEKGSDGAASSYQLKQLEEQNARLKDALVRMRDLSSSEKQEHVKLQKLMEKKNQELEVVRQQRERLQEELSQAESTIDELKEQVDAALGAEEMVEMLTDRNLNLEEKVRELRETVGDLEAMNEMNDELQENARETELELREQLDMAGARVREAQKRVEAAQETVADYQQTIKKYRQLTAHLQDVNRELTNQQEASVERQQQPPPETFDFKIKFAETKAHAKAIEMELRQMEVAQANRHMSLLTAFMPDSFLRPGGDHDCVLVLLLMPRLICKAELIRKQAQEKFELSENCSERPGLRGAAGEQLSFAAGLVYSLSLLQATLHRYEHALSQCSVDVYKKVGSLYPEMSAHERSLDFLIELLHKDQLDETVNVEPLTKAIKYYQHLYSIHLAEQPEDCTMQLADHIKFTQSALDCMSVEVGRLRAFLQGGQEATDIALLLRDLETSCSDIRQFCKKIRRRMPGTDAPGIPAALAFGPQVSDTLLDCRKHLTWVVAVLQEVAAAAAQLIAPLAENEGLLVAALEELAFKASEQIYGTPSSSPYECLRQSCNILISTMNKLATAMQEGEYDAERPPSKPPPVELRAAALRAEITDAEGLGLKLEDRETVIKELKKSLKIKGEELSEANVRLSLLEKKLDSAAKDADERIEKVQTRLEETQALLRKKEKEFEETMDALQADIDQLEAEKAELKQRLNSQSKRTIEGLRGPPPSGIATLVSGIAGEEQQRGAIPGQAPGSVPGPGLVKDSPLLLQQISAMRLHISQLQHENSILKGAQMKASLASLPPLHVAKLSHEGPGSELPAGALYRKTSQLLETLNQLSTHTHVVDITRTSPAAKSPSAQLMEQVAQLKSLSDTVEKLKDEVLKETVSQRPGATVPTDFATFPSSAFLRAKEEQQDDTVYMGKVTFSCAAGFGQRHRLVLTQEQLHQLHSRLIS

Substance	overlay signal as percent of the endogenous IC band [1]	overlay signal as percent of the endogenous IC band [2]	percent increase in binding against dephospho-ICs [2]	fold reduction in binding against the wild type [3]	fold reduction in binding against the wild type [4]
recombinant IC-2C fragment spanning residues 1-284 (dephosphorylated ICs) (domain or fragment)	83%	31.1%	–	–	–
recombinant IC-2C fragment (residues 1-284) phosphorylated in vitro (phospho-ICs) (domain or fragment)	55.4%	96.2%	100%	–	–
recombinant p150^Glued fragment spanning residues 1-811 (from UniProt P28023 1-811) (domain or fragment)	–	–	–	4 fold	4 fold
